Source: PMC3401385 (Cell Reports, 2012)
Values belong to the binder of their own block, whether it stands above or below them.

Experiments:
eIF2β K2K3 = biological target: T1, eIF2β K2K3 (Saccharomyces cerevisiae, UniProt P09064); experiment: ITC
T1 chain: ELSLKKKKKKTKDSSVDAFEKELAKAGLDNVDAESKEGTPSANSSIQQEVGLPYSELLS

eIF2 ternary complex = biological target: T2, eIF2 ternary complex (Saccharomyces cerevisiae, UniProt P20459)
T2 chain 1: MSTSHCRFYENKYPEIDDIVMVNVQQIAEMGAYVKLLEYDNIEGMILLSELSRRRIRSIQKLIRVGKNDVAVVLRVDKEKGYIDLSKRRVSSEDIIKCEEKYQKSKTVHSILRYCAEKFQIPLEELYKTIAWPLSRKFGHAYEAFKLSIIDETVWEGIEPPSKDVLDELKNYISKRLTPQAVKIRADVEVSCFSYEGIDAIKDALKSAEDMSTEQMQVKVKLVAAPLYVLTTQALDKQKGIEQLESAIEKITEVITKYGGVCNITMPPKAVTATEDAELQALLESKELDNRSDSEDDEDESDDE
T2 chain 2: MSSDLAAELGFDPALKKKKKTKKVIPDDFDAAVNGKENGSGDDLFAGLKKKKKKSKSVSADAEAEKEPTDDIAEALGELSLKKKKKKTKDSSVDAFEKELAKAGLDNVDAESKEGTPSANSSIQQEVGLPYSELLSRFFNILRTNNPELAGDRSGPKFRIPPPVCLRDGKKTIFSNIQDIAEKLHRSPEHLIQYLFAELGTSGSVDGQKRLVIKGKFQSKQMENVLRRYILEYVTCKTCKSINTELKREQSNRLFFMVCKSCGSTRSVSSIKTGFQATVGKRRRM
T2 chain 3: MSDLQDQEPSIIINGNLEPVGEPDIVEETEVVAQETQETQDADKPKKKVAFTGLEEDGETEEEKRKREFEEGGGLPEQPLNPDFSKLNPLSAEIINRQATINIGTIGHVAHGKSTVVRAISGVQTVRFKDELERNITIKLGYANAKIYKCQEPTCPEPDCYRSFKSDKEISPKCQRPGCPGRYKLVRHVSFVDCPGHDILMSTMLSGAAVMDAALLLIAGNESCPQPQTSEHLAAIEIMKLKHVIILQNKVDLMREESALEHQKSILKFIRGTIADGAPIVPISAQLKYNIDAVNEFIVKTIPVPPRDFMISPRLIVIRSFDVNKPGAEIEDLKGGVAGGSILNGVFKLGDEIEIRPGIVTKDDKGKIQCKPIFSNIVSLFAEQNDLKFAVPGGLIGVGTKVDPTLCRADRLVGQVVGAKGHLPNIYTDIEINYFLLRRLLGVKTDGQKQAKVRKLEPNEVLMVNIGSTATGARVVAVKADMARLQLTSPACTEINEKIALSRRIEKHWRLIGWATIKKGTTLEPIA

[1] = biological target: human eIF5-CTD (carboxyl-terminal domain of eukaryotic initiation factor 5), wild type (human, UniProt P55010 225-407); experiment: ITC
Chain of human eIF5-CTD (carboxyl-terminal domain of eukaryotic initiation factor 5), wild type (P55010 225-407): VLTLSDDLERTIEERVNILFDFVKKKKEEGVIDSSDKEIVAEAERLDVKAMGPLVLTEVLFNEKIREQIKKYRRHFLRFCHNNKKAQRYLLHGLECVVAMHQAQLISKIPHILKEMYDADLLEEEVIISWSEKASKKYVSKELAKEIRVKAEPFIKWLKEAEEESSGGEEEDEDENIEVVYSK

Kd (eIF2β K2K3): ~4 µM
B1: eIF5 CTD (protein)
chain: VNSELTQLDEYGEWILEQAGEDKENLPSDVELYKKAAELDVLNDPKIGCVLAQCLFDEDIVNEIAEHNAFFTKILVTPEYEKNFMGGIERFLGLEHKDLIPLLPKILVQLYNNDIISEEEIMRFGTKSSKKFVPKEVSKKVRRAAKPFITWLETAESDDDEEDDE

Kd (eIF2 ternary complex): 0.1 µM
B2: eIF5 (protein)
chain: MSINICRDNHDPFYRYKMPPIQAKVEGRGNGIKTAVLNVADISHALNRPAPYIVKYFGFELGAQTSISVDKDRYLVNGVHEPAKLQDVLDGFINKFVLCGSCKNPETEIIITKDNDLVRDCKACGKRTPMDLRHKLSSFILKNPPDSVSGSKKKKKAATASANVRGGGLSISDIAQGKSQNAPSDGTGSSTPQHHDEDEDELSRQIKAAASTLEDIEVKDDEWAVDMSEEAIRARAKELEVNSELTQLDEYGEWILEQAGEDKENLPSDVELYKKAAELDVLNDPKIGCVLAQCLFDEDIVNEIAEHNAFFTKILVTPEYEKNFMGGIERFLGLEHKDLIPLLPKILVQLYNNDIISEEEIMRFGTKSSKKFVPKEVSKKVRRAAKPFITWLETAESDDDEEDDE

Kd [1]: ~4 µM
B3: eIF2β-K2K3 (eIF2β residues 53-135, with the K2 and K3 lysine boxes) (domain or fragment, UniProt P20042 53-135, looked up)
chain: DLEADEEDTRKKDASDDLDDLNFFNQKKKKKKTKKIFDIDEAEEGVKDLKIESDVQEPTEPEDDLDIMLGNKKKKKKNVKFPD
